Test results reported in patent US20240293316.

What was measured:
[1] = system: NorMMPD (norbornene monomer functionalized with the D-MMP peptide)
[2] = system: NorMMPL (norbornene monomer functionalized with the L-MMP peptide)
[3] = system: NorMMPR (norbornene monomer functionalized with the random peptide R-MMP)

Sequence of MMP-9 (chain, as listed by the source): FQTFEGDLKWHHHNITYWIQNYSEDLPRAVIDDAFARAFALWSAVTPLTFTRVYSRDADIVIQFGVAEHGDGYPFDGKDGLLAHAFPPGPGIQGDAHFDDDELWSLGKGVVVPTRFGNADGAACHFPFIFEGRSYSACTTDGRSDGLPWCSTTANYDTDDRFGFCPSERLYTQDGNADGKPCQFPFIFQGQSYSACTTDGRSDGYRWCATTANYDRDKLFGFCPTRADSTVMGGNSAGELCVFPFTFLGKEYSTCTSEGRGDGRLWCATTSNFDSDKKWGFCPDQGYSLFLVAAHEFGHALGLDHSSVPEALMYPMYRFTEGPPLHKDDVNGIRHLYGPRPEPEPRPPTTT

MMP-9
MMP-9 cleavage assay (HPLC after 24 hours of incubation with MMP-9 at 37° C.; 0.5 µM MMP-9 : 500 µM NorMMP) [1]: remained intact | MMP-9 cleavage assay (HPLC after 24 hours of incubation with MMP-9 at 37° C.; 0.5 µM MMP-9 : 500 µM NorMMP) [2]: NorMMPL was completely cleaved | MMP-9 cleavage assay (HPLC after 24 hours of incubation with MMP-9 at 37° C.; 0.5 µM MMP-9 : 500 µM NorMMP) [3]: remained intact
